The stoichiometry N is the number of molecules, sites or subunits per partner or assembly.

The target in the assay is Methanocaldococcus jannaschii SufB* (N-terminal His6 tagged) (Methanocaldococcus jannaschii). In words: pull-down.

Consider “Methanocaldococcus jannaschii SufC (untagged) (natural protein)”, for which the stoichiometry N is 1.

The record behind these values is publication doi:10.1101/2024.03.20.586028.
